According to publication PMC10706272, “Improving the Thermostability of Thermomyces lanuginosus Lipase by Restricting the Flexibility of N-Terminus and C-Terminus Simultaneously via the 25-Loop Substitutions” (International Journal of Molecular Sciences, 2023):

System: CCCCCCCCCCCCCCCC(=O)Oc1ccc([N+](=O)[O-])cc1
Experiment: initial-rate hydrolysis of pNPP, p-nitrophenol release, Michaelis-Menten fit
Assay type: biochemical, Thermomyces lanuginosus
Conditions: 37 °C, pH 9.0, Tris-HCl 100 mM, apparent Km, pNPP 0.25-10 mM
Text: initial-rate hydrolysis of pNPP, p-nitrophenol release, Michaelis-Menten fit on TLL (Thermomyces lanuginosus lipase)

| Substance | Km [µM] | Vmax [µmol/min/mg] | kcat [s⁻¹] | kcat/Km [M⁻¹ s⁻¹] |
| --- | --- | --- | --- | --- |
| TLL (Thermomyces lanuginosus lipase) (Thermomyces lanuginosus; A52P) | 240 ± 20 | 503 | 1036 ± 4 | 4.383e+06 ± 42000 |
| TLL (Thermomyces lanuginosus lipase) (Thermomyces lanuginosus; D49N) | 220 ± 20 | 396 | 777 ± 5 | 3.503e+06 ± 31000 |
| TLL (Thermomyces lanuginosus lipase) (Thermomyces lanuginosus; D49R) | 360 ± 10 | 828 | 1900 ± 21 | 5.24e+06 ± 118000 |
| TLL (Thermomyces lanuginosus lipase) (Thermomyces lanuginosus; K46S) | 310 ± 20 | 681 | 1380 ± 22 | 4.48e+06 ± 157000 |
| TLL (Thermomyces lanuginosus lipase) (Thermomyces lanuginosus; P51S) | 290 ± 30 | 668 | 1354 ± 9 | 4.747e+06 ± 28000 |
